# Measurements as given in US20250163127A1.
# Target: PD-L1 (human)
# Assay: flow cytometry, cells expressing PD-L1
# Sequence of PD-L1 (human) (chain, as listed by the source): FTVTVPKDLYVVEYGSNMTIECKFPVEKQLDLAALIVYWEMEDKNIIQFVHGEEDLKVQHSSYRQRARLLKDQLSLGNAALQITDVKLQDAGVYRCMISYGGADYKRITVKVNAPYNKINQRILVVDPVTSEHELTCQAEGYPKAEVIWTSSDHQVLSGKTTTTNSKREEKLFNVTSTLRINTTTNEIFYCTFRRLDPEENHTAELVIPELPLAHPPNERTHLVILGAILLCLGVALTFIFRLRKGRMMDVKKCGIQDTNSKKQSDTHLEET
# Sequence of WT CD80 (Fc fusion) (chain): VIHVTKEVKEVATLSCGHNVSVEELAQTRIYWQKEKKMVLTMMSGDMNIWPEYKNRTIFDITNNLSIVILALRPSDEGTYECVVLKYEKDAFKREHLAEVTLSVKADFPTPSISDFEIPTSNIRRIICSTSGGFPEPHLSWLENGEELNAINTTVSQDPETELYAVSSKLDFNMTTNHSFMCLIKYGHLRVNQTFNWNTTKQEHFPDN
# Sequence of CTLA4-Fc (P16410 37-162 limits assumed): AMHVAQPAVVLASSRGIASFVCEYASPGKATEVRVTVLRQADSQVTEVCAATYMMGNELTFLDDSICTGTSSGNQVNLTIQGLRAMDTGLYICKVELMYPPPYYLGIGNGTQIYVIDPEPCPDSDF
row,MFI,Substance
1,70 MFI,WT CD80 (Fc fusion)
2,6 MFI,variant CD80 Y31H/T41G/M43L/L70Q/A91G/I118V/T120S/I126V/T130A (Fc fusion)

# The remaining lines, values behind:
row,Substance,MFI
1,variant CD80 A91G (Fc fusion),85 MFI
2,variant CD80 L70Q/A91G/N144D (Fc fusion),6 MFI

# Target: CTLA-4 (human)
# Assay: flow cytometry, cells expressing CTLA-4
# Sequence of CTLA-4 (human) (chain, as listed by the source): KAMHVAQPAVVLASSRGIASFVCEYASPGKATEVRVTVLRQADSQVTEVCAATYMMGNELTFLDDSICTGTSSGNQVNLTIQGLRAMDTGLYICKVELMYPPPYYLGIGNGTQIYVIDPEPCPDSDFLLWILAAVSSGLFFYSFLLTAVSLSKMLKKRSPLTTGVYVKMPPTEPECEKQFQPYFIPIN
row,MFI,Substance
1,200 MFI,variant CD80 A91G (Fc fusion)
2,148 MFI,variant CD80 K89E/T130A (Fc fusion)

# Target: CD28, full-length, expressed on transfected cells (Homo sapiens (Human)) (UniProt P10747)
# Assay: flow cytometry, cells expressing target
row,MFI,Substance
1,1990 MFI,ICOSL ECD-Fc N30D/N52S/L67P/Q100K/D217G/R221K/T225S (Fc fusion)
2,31100 MFI,ICOSL ECD-Fc N52S/E90A (Fc fusion)
3,54 MFI,ICOSL ECD-Fc N52S/T113E (Fc fusion)

# Target: CD80 (human)
# Sequence (chain, as listed by the source): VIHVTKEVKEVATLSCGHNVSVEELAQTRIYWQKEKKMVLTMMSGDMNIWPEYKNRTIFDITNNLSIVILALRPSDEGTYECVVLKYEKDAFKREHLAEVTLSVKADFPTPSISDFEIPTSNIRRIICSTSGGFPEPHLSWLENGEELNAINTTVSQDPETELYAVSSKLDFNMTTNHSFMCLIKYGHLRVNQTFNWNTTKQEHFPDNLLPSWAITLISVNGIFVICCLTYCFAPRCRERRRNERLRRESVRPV
# Assay: flow cytometry, cells expressing CD80, 20 nM
row,MFI at 20 nM,Substance
1,200000 MFI,CTLA4-Fc (from UniProt P16410) (Fc fusion)
2,128 MFI,variant PD-L1 G15A/V129D Fc fusion
3,150 MFI,variant PD-L1 V93E/V129D Fc fusion

# Target: human PD-1 (human) (UniProt Q15116)
# Sequence (Q15116 25-288): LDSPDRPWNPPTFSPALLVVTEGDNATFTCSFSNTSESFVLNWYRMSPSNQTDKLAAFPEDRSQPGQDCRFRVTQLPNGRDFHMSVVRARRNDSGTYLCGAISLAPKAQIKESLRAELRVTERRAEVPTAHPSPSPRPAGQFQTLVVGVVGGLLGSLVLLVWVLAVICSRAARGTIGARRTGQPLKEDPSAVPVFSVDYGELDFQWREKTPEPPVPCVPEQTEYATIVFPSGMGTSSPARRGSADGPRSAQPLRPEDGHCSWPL
# Assay: flow cytometry, cells expressing PD-1, 20 nM
row,MFI at 20 nM,Substance
1,125 MFI,variant PD-L1 G15A/I36T/V129D/R195G Fc fusion
2,2000 MFI,variant PD-L1 V129D/H202Q Fc fusion

# Target: CD80 (human) (UniProt P33681)
# Assay: flow cytometry, cells expressing the partner
row,MFI,Substance
1,2400 MFI,CTLA-4 ECD-Fc L12P/A26T/L63P (Fc fusion)
2,3930 MFI,CTLA-4 ECD-Fc L63P (Fc fusion)
3,3860 MFI,CTLA-4 ECD-Fc L98Q/Y105L (Fc fusion)

# Continued, substance first:
row,Substance,MFI
1,CTLA-4 ECD-Fc L12P/A26T (Fc fusion),1024 MFI
2,CTLA-4 ECD-Fc L12P/A26T/L63P/L98Q/Y105L (Fc fusion),829 MFI
3,CTLA-4 ECD-Fc L63P/L98Q/Y105L (Fc fusion),4720 MFI
4,CTLA-4 ECD-Fc L98R/N110K (Fc fusion),2110 MFI

# Target: CD86 (human) (UniProt P42081)
# Assay: flow cytometry, cells expressing the partner
MFI,MFI ratio to WT (ΔWT),Substance
500000 MFI,,CTLA-4 ECD-Fc L12P/A26T/L63P (Fc fusion)
596000 MFI,,CTLA-4 ECD-Fc L63P (Fc fusion)
685000 MFI,,CTLA-4 ECD-Fc L98Q/Y105L (Fc fusion)

# The next lines start with the substance.
Substance,MFI,MFI ratio to WT (ΔWT)
CTLA-4 ECD-Fc L12P/A26T (Fc fusion),276000 MFI,0.4 fold
CTLA-4 ECD-Fc L12P/A26T/L63P/L98Q/Y105L (Fc fusion),762000 MFI,
CTLA-4 ECD-Fc L63P/L98Q/Y105L (Fc fusion),411000 MFI,
CTLA-4 ECD-Fc L98R/N110K (Fc fusion),665000 MFI,

# Target: T1, ICOSL (human) (UniProt O75144)
# T1 sequence: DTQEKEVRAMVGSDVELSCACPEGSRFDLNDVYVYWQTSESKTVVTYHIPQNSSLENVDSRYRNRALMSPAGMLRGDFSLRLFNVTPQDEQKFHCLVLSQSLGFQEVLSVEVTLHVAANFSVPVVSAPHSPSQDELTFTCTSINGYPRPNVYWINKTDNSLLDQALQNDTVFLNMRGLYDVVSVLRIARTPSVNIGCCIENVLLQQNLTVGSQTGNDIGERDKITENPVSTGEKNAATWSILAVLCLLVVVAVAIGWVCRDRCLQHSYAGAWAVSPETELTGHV
# Assay: flow cytometry, cells expressing the partner
row,MFI,Substance
1,891 MFI,CTLA-4 ECD-Fc L12P/A26T/L63P (Fc fusion)
2,966 MFI,CTLA-4 ECD-Fc L63P (Fc fusion)
3,1190 MFI,CTLA-4 ECD-Fc L98Q/Y105L (Fc fusion)

# Continued, substance first:
row,Substance,MFI
1,CTLA-4 ECD-Fc L12P/A26T (Fc fusion),928 MFI
2,CTLA-4 ECD-Fc L12P/A26T/L63P/L98Q/Y105L (Fc fusion),873 MFI
3,CTLA-4 ECD-Fc L63P/L98Q/Y105L (Fc fusion),1800 MFI

# Target: T2, human ICOSL (human)
# T2 sequence: T1 sequence
# Assay: flow cytometry, cells expressing human ICOSL
row,MFI,Substance
1,862 MFI,variant CTLA-4 ECD-Fc L12F/R16H/G29W/L98Q/Y105L (Fc fusion)
2,613 MFI,variant CTLA-4 ECD-Fc L12F/R16H/G29W/M56T/S72G/L98Q/Y105L (Fc fusion)
3,700 MFI,variant CTLA-4 ECD-Fc M56T/L98Q/Y105L (Fc fusion)

# Further lines, the substance ahead of its results:
row,Substance,MFI
1,variant CTLA-4 ECD-Fc G29W/L98Q/Y105L (Fc fusion),570 MFI
2,variant CTLA-4 ECD-Fc G29W/M56T/L98Q/Y105L (Fc fusion),612 MFI
3,variant CTLA-4 ECD-Fc G29W/M56T/S72G/L98Q/Y105L (Fc fusion),534 MFI

# Target: CTLA4 (human)
# Assay: flow cytometry, CHO cells stably expressing CTLA4
row,MFI at 33.3 nM,Substance
1,311000 MFI,CD80 variant E24D/Q33L/E35D/M47V/K54R/L85Q IgV-Fc (Fc fusion)
2,8660 MFI,CD80 variant E35D/M47I/K54R/L85E IgV-Fc (Fc fusion)
3,47600 MFI,CD80 variant Q33L/E35D/M47V IgV-Fc (Fc fusion)
4,28900 MFI,CD80 variant Q33L/E35D/M47V/T79A IgV-Fc (Fc fusion)

# Target: PD-L1 (human)
# Assay: flow cytometry, CHO cells stably expressing PD-L1
row,MFI at 33.3 nM,Substance
1,67100 MFI,CD80 variant E24D/Q33L/E35D/M47V/K54R/L85Q IgV-Fc (Fc fusion)
2,36900 MFI,CD80 variant E35D/M47I/K54R/L85E IgV-Fc (Fc fusion)
3,47900 MFI,CD80 variant Q33L/E35D/M47V IgV-Fc (Fc fusion)
4,62100 MFI,CD80 variant Q33L/E35D/M47V/T79A IgV-Fc (Fc fusion)

# Target: T3, CD226 (human) (UniProt Q15762)
# T3 sequence: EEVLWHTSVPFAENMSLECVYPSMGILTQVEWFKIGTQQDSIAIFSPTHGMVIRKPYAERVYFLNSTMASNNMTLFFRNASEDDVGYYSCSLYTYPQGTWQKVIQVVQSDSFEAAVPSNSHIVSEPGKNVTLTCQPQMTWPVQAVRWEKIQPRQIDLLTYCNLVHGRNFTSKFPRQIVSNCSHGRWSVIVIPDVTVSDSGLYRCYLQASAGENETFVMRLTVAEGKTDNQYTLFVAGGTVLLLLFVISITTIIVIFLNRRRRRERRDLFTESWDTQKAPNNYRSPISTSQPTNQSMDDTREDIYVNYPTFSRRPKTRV
# Assay: flow cytometry, Fc fusion on Expi293 cells transfected with full-length human CD226
row,MFI,Substance
1,152000 MFI,CD112 A112V (Fc fusion)
